Measured values reported in the supplement of paper PMC7877785.
± gives the uncertainty stated by the source.

Assay: self-splicing fitness, log relative to wild type (ln ratio); higher = more splicing; Tetrahymena group I intron in knt gene, E. coli kanamycin selection, DiMSum; sequences stand for … in CUCUCU…GGAGGGAAAAGUUAUCAGGCAUGCACCUGGUAGCUAGUCUUUAAACCAAUAGAUUGCAUCGGUUUAAAAGGCAAGACCGUCAAAUUGCGGGAAAGGGGUCAACAGCCGUUCAGUACCAAGUCUCAGGGGAAACUUUGAGAUGGCCUUGCAAAGGGUAUGGUAAUAAGCUGACGGACAUGGUCCUAACCACGCAGCCAAGUCCUAAGUCAACAGAUCUUCUGUUGAUAUGGAUGCAGUUCACAGACUAAAUGUCGGUCGGGGAAGAUGUAUUCUUCUCAUAAGAUAUAGUCGGACCUCUCCUUAAUGGGAGCUAGCGGAUGAAGUGAUGCAACACUGGAGCCGCUGGGAACUAAUUUGUAUGCGAAAGUAUAUUGAUUAGUUUUGGAGUACUCGUGGUCG
In short: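 Six replicate transformations of E. coli BL21(DE3) with a pET-22b(+) library were grown overnight at 37°C or 30°C. The library randomised all eight P1ex-region intron nucleotides, the intron lying in the knt kanamycin-resistance gene, and plates were LB agar with or without 25 μg/mL kanamycin plus 100 μg/mL carbenicillin, 50 μM IPTG and 0.2% rhamnose. Pooled colonies were amplicon-sequenced on an Illumina HiSeq 2500, and fitness is the DiMSum error-weighted combination of wild-type-normalised replicate fold changes, kanamycin versus none.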

Row | Sequence | self-splicing fitness (ln) (30 °C) | self-splicing fitness (ln) (37 °C)
1 | CCGCAGCAAUAUUACGUGAU | -2.62 ± 0.15 | -2.31 ± 0.2
2 | CCGCAGCAAUAUUACGUGCC | -3.67 ± 0.24 | -3.75 ± 0.3
3 | CCGCAGCAAUAUUACGUGUG | -3.24 ± 0.11 | -1.79 ± 0.094
4 | CCGCAGCAAUAUUACGUUAG | -1.11 ± 0.064 | -0.553 ± 0.076
5 | CCGCAGCAAUAUUACGUUUA | -3.22 ± 0.18 | -2.35 ± 0.14
6 | CCGGAGCAAUAUUACGAAAA |  | -2.99 ± 0.48
7 | CCGGAGCAAUAUUACGAAUA |  | -2.16 ± 0.4
8 | CCGGAGCAAUAUUACGAAUU |  | -3.26 ± 0.3
9 | CCGGAGCAAUAUUACGACGC | -3.23 ± 0.22 | -2.22 ± 0.32
10 | CCGGAGCAAUAUUACGACUA | -2.18 ± 0.45 | -1.88 ± 0.27
11 | CCGGAGCAAUAUUACGACUU | -2.23 ± 0.24 | -1.86 ± 0.48
12 | CCGGAGCAAUAUUACGAGCC | -3.09 ± 0.31 | -2.1 ± 0.42
13 | CCGGAGCAAUAUUACGAGCU | -2.94 ± 0.35 | -1.84 ± 0.49
14 | CCGGAGCAAUAUUACGAGUG | -1.61 ± 0.076 | -0.14 ± 0.084
15 | CCGGAGCAAUAUUACGAUGG | -3.6 ± 0.48 | -3 ± 0.43
16 | CCGGAGCAAUAUUACGAUUG | -0.529 ± 0.094 | 0.132 ± 0.14
17 | CCGGAGCAAUAUUACGCGCC | -1.89 ± 0.32 | 
18 | CCGGAGCAAUAUUACGCUCA | -3.12 ± 0.3 | -2.71 ± 0.41
19 | CCGGAGCAAUAUUACGCUUG | -2.67 ± 0.24 | -2.22 ± 0.27
20 | CCGGAGCAAUAUUACGGAAA | -1.87 ± 0.18 | -2.41 ± 0.3

Row | Sequence | self-splicing fitness (ln) (30 °C) | self-splicing fitness (ln) (37 °C)
21 | CCGGAGCAAUAUUACGGAAC | -3.29 ± 0.47 | -1.67 ± 0.36
22 | CCGGAGCAAUAUUACGGAAG | -2.73 ± 0.11 | -2.21 ± 0.14
23 | CCGGAGCAAUAUUACGGAUU |  | -1.82 ± 0.2
24 | CCGGAGCAAUAUUACGGGCU | -3.52 ± 0.35 | -3.75 ± 0.42
25 | CCGGAGCAAUAUUACGGUAA | -2.12 ± 0.25 | -3.21 ± 0.4
26 | CCGGAGCAAUAUUACGUACU | -4.13 ± 0.44 | -3.36 ± 0.42
27 | CCGGAGCAAUAUUACGUAGA | -3.6 ± 0.19 | -2.66 ± 0.2
28 | CCGGAGCAAUAUUACGUCGC | -2.63 ± 0.32 | -2.43 ± 0.41
29 | CCGGAGCAAUAUUACGUGAA |  | -1.86 ± 0.31
30 | CCGGAGCAAUAUUACGUGCU | -2.99 ± 0.17 | -2.85 ± 0.24
31 | CCGGAGCAAUAUUACGUGGU | -3.01 ± 0.2 | 0.658 ± 0.18
32 | CCGGAGCAAUAUUACGUGUG | -1.68 ± 0.039 | -1.05 ± 0.061
33 | CCGUAGCAAUAUUACGAAGG | -3.22 ± 0.39 | 
34 | CCGUAGCAAUAUUACGAAGU | -3.05 ± 0.21 | -1.46 ± 0.31
35 | CCGUAGCAAUAUUACGACUU | -2.98 ± 0.37 | -2.67 ± 0.41
36 | CCGUAGCAAUAUUACGAGCC |  | -1.01 ± 0.42
37 | CCGUAGCAAUAUUACGAGCU | -3.28 ± 0.22 | -3.35 ± 0.24
38 | CCGUAGCAAUAUUACGAUUG | -0.486 ± 0.064 | -0.0224 ± 0.082
39 | CCGUAGCAAUAUUACGCAAU | -3.31 ± 0.24 | -2.05 ± 0.22
40 | CCGUAGCAAUAUUACGCGCA | -3.09 ± 0.3 | -1.69 ± 0.4
